Measurements reported in paper PMC4130213.

What was measured:
[1] = system: CovR (unphosphorylated) (Streptococcus pyogenes (M6 serotype, JRS4?)); assay: DNase I footprinting; conditions: not given in the material (DNase I protection assay details absent)
[2] = system: CovR-P (phosphorylated CovR) (Streptococcus pyogenes (M6 serotype, JRS4?)); assay: DNase I footprinting; conditions: not given in the material (DNase I protection assay details absent)

Substance: Pska wild type
- binding signal [1]: 3 µM
- binding signal [2]: 0.25 µM
